Data: the Immune Epitope Database (IEDB)

Legend:
Test in all cases: IEDB peptide-MHC binding, purified MHC/competitive/radioactivity; filed as Kd, often an IC50 or EC50 that approximates it; ≥ and ≤ were set here for values at or beyond the usual limits of such assays
HLA-B*18:01 = molecular target: HLA-B*18:01
HLA-B*40:01 = molecular target: HLA-B*40:01
HLA-B*40:02 = molecular target: HLA-B*40:02
HLA-B*44:02 = molecular target: HLA-B*44:02
HLA-B*44:03 = molecular target: HLA-B*44:03
HLA-B*45:01 = molecular target: HLA-B*45:01
HLA-B*07:02 = molecular target: HLA-B*07:02
HLA-B*35:01 = molecular target: HLA-B*35:01
HLA-B*51:01 = molecular target: HLA-B*51:01
HLA-B*53:01 = molecular target: HLA-B*53:01
HLA-B*54:01 = molecular target: HLA-B*54:01
HLA-A*02:03 = details: source organism: Dengue virus 3 Martinique/1243/1999
HLA-A*02:17 = details: source organism: Dengue virus 3 China/80-2/1980
[1] = source organism: SARS coronavirus Tor2
[2] = source organism: Mammarenavirus machupoense
[3] = source organism: Vaccinia virus WR
[4] = source organism: Mammarenavirus juninense

Question: VETFYPKLQA was tested. Which Kd (HLA-B*18:01; [1]) did it give?
Answer: Its Kd is at least 59.6 µM.

Question: What about the Kd (HLA-B*40:01; [1]) of the same sequence?
Answer: The Kd was at least 69.6 µM.

Question: What about the Kd (HLA-B*40:02; [1]) of the same sequence?
Answer: Its Kd is 12600 nM.

Question: And the Kd (HLA-B*44:02; [1])?
Answer: Its Kd is at least 70.2 µM.

Question: What about the Kd (HLA-B*44:03; [1]) of the same sequence?
Answer: The Kd was at least 41.4 µM.

Question: And the Kd (HLA-B*45:01; [1])?
Answer: Its Kd is 2.6 µM.

Question: Which Kd (HLA-B*07:02; [1]) does the source give for HPLADNKFAL here?
Answer: The Kd was 97.1 nM.

Question: What about the Kd (HLA-B*35:01; [1]) of the same sequence?
Answer: Its Kd is 185 nM.

Question: What about the Kd (HLA-B*51:01; [1]) of the same sequence?
Answer: The Kd was 991 nM.

Question: And the Kd (HLA-B*53:01; [1])?
Answer: The Kd was 783 nM.

Question: And the Kd (HLA-B*54:01; [1])?
Answer: Its Kd is 7110 nM.

Question: Which results are given for MPALTIACM?
Answer: Kd (HLA-B*07:02; [2]): 142 nM; Kd (HLA-B*35:01; [2]): 5.23 nM; Kd (HLA-B*51:01; [2]): 3700 nM; Kd (HLA-B*53:01; [2]): 25.7 nM; Kd (HLA-B*54:01; [2]): 836 nM

Question: APIKEFKAKI was tested. Which Kd (HLA-B*07:02; [3]) did it give?
Answer: The Kd was 20.2 nM.

Question: What about the Kd (HLA-B*35:01; [3]) of the same sequence?
Answer: Its Kd is at least 41400 nM.

Question: And the Kd (HLA-B*51:01; [3])?
Answer: The Kd was at least 22400 nM.

Question: And the Kd (HLA-B*53:01; [3])?
Answer: Its Kd is 12000 nM.

Question: And the Kd (HLA-B*54:01; [3])?
Answer: The Kd was 11200 nM.

Question: Which results are given for TPVSMTYLY?
Answer: Kd (HLA-B*07:02; [3]): 170 nM; Kd (HLA-B*35:01; [3]): 0.0662 nM; Kd (HLA-B*51:01; [3]): ≥ 77500 nM; Kd (HLA-B*54:01; [3]): 972 nM

Question: KETLYRIDG was tested. Which Kd (HLA-B*18:01; [1]) did it give?
Answer: The Kd was at least 77.5 µM.

Question: And the Kd (HLA-B*40:01; [1])?
Answer: The Kd was at least 46 µM.

Question: And the Kd (HLA-B*40:02; [1])?
Answer: The Kd was at least 45600 nM.

Question: And the Kd (HLA-B*44:02; [1])?
Answer: The Kd was at least 57.7 µM.

Question: What about the Kd (HLA-B*44:03; [1]) of the same sequence?
Answer: The Kd was at least 30.6 µM.

Question: What about the Kd (HLA-B*45:01; [1]) of the same sequence?
Answer: The Kd was at least 24 µM.

Question: For SDFLISEML, which Kd (HLA-B*18:01; [4]) is on record?
Answer: The Kd was at least 56 µM.

Question: What about the Kd (HLA-B*40:01; [4]) of the same sequence?
Answer: Its Kd is 11.5 µM.

Question: And the Kd (HLA-B*40:02; [4])?
Answer: The Kd was 17.1 nM.

Question: And the Kd (HLA-B*44:02; [4])?
Answer: The Kd was 2.4 µM.

Question: And the Kd (HLA-B*44:03; [4])?
Answer: Its Kd is at least 51.5 µM.

Question: What about the Kd (HLA-B*45:01; [4]) of the same sequence?
Answer: The Kd was at least 27.6 µM.

Question: For LPFTLGIMAI, which Kd (HLA-B*07:02; [1]) is on record?
Answer: The Kd was 743 nM.

Question: And the Kd (HLA-B*35:01; [1])?
Answer: The Kd was 4980 nM.

Question: And the Kd (HLA-B*51:01; [1])?
Answer: The Kd was 1210 nM.

Question: What about the Kd (HLA-B*53:01; [1]) of the same sequence?
Answer: Its Kd is 487 nM.

Question: And the Kd (HLA-B*54:01; [1])?
Answer: The Kd was 150 nM.

Question: How did the Kd (HLA-A*02:03) turn out when ILALFLAHYI was run?
Answer: The Kd was 33.5 nM.

Question: And the Kd (HLA-A*02:17)?
Answer: Its Kd is 266 nM.

Question: NDNFLMSNV was tested. Which Kd (HLA-B*18:01; [2]) did it give?
Answer: The Kd was at least 43.6 µM.

Question: What about the Kd (HLA-B*40:01; [2]) of the same sequence?
Answer: Its Kd is at least 27.6 µM.

Question: And the Kd (HLA-B*40:02; [2])?
Answer: Its Kd is 2990 nM.

Question: And the Kd (HLA-B*44:02; [2])?
Answer: The Kd was 13.1 µM.

Question: And the Kd (HLA-B*44:03; [2])?
Answer: The Kd was 19.6 µM.

Question: What about the Kd (HLA-B*45:01; [2]) of the same sequence?
Answer: The Kd was at least 10 µM.
